Measured values as given in article PMC3431625 (The Journal of Biological Chemistry, 2012).

How the values were obtained:
[1] = molecular target: Collagen type I (UniProt P02453;P02465); experiment: ELISA
[2] = molecular target: Mouse laminin isolated from Engelbreth-Holm-Swarm mouse sarcoma (mouse, UniProt P19137;P02469;P02468); experiment: ELISA

Collagen type I, sequence (P02453 162-1217, chain 1 of 2): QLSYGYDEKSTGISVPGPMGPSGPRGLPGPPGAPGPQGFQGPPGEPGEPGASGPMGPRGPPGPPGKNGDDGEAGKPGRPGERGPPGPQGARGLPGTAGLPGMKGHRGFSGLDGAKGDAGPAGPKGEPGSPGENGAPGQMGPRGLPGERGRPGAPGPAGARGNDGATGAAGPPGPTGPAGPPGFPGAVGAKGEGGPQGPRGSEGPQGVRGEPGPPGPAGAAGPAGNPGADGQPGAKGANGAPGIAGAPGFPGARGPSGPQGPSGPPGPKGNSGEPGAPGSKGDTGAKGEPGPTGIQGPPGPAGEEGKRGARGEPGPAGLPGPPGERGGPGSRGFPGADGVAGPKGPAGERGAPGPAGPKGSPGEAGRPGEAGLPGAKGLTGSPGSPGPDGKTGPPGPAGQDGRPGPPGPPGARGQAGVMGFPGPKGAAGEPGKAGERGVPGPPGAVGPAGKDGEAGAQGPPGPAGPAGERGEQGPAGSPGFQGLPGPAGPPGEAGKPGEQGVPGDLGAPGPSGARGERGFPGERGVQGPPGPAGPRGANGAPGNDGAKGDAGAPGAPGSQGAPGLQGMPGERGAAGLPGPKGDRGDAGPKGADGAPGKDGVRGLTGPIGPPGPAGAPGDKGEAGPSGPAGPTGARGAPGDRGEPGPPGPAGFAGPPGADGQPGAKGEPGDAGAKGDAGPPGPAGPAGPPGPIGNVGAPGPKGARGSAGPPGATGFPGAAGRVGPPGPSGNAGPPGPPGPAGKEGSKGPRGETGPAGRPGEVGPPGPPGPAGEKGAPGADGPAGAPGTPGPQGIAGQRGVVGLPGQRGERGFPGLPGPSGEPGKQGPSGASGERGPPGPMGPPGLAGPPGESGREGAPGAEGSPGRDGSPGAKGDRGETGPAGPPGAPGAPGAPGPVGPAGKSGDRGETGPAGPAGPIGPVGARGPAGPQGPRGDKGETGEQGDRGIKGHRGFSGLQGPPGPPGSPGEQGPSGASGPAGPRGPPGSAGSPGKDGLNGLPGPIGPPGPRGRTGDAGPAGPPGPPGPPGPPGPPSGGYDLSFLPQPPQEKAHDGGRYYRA
Collagen type I, sequence (P02465 80-1117, chain 2 of 2): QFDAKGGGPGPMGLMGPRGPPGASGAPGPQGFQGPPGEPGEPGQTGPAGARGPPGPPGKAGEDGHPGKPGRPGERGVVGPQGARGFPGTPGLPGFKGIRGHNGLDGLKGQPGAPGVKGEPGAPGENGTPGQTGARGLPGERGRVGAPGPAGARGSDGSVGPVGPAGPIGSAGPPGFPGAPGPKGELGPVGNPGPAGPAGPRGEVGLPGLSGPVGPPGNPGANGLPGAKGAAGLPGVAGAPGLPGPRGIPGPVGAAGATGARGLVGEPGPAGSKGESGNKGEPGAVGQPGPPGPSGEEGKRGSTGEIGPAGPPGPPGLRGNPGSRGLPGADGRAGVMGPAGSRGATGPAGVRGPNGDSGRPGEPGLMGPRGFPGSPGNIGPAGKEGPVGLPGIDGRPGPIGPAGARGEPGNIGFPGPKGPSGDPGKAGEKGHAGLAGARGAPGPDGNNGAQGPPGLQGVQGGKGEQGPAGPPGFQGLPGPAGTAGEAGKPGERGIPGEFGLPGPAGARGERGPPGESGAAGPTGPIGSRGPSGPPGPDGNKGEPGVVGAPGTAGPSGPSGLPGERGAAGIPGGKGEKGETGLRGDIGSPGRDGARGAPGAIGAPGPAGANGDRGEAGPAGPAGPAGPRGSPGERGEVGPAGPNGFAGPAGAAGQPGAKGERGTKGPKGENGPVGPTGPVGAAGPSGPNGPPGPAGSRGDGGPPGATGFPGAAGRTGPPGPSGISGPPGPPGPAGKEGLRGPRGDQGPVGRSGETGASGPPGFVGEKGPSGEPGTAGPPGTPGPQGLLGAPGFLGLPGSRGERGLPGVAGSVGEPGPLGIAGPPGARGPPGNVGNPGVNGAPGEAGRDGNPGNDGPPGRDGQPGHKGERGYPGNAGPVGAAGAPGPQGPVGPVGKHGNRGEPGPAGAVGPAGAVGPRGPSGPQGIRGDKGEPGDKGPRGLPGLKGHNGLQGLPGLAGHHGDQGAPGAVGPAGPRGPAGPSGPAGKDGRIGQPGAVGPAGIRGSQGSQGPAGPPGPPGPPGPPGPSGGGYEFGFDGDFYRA

B1: Recombinant bovine opticin (natural protein)
chain: ASLSEEREGDPYAILHLGDYVLSLDNYDEVIDPSNYDELIDYGDQLPQVKGTSLASLTRTRFTQSTEAARTLPSNPTTARPPTLGLLAAPANHGLPTCLICVCLGSSVYCDDADLENIPPLPQTTAYLYARFNRISHIRAGDFKGLTKLKRIDLSGNSISSIDDKALRLLPALRDLILPENKLVALPTLPTSIEVLDVRMNRLQSSGIQPEAFRALEKLQFLYLADNLLDAIPPSLPLSLRSLHLQNNMIETMQRDAFCDAEEHRHTRRPLEDIRLDGNPINLSLFPSAYFCLPRLPTGRFV
[1]
  Kd: 60 nM
[2]
  Kd: 40 nM
